These results are taken from publication PMC2797608.

The target in the test is methyltransferase domain of human GLP (residues 951-1235) (human). The experiment in a line: not stated; affinity of GLP for H3 peptides; the method of the affinity is not told; the methods describe only a SAHH-coupled kinetic assay of GLP (Km, kcat; peptide 2 uM to 4 mM, 70 uM SAM, room temperature, 25 mM potassium phosphate pH 8).

In the case of H3K9 peptide trimethylated at lysine 4, the decrease in affinity against the peptide not methylated at K4 was determined as 43%.
